Data on 21 molecules can be found in patent US20230331824A1 (ROCKEFELLER UNIVERSITY, published 2023).

The target in assay [1] is T1, recombinant SARS-CoV-2 spike S1-His (SARS-CoV-2, UniProt P0DTC2 16-685).
T1 construct: domain: S1
Nature of the assay: pull-down on immobilized S1, band quantified.

Assay [2] has as its target SARS-CoV-1 spike on pseudovirus (SARS-CoV-1, UniProt P59594 14-1255). The assay can be described thus: cell-based or functional assay.
Assay [3] has as its target T2, recombinant SARS-CoV-2 spike RBD (untagged) (SARS-CoV-2, UniProt P0DTC2 319-541).
T2 construct: domain: RBD
The assay can be described thus: SPR. (In general: SPR reads the build-up and loss of mass on a sensor chip optically.)

Assay [4] concerns the target T3, SARS-CoV-2 spike protein (SARS-CoV-2, UniProt P0DTC2 14-1273). The assay can be described thus: cell-based or functional assay.
The target in assay [5] is T2, recombinant SARS-CoV-2 spike RBD …. Nature of the assay: SPR. The source holds these as a separate data set.
Assay [6] has as its target T3, SARS-CoV-2 spike protein. Nature of the assay: cell-based or functional assay. This is another data set of the same source.
Assay [7] has as its target T4, recombinant SARS-CoV-2 spike S2-His (SARS-CoV-2, UniProt P0DTC2 686-1213).
T4 construct: domain: S2
Nature of the assay: pull-down on immobilized S2, band quantified.

Assay [8] concerns the target T2, recombinant SARS-CoV-2 spike RBD …. Nature of the assay: periplasm pull-down on immobilized S1-RBD, SDS-PAGE.

Read-outs that look alike come from different tables or passages of the source.

B1: S1-8 (VHH)
VHH: QVQLVESGGGLVQAGGSLRLSCAASGRVLSSYVMGWFRQAPGKEREFVAAIRWNGGSTFYADSVKGRLTISRDNAKNTVYLQMNSLKPEDTAAYYCAASPRTMYDATYYYSRTSYDYWGQGTQVTVS
notes: also called S1 Nanobody # 8
As for B1, the binding result in assay [1] is “binds”.

B2: S1-1 (VHH)
VHH: QVQLVESGGGLVQAGGSLRLSCAASGMPFSSYAMGWFRQAPGKEREFVAAVNWNGISTYLADSVKGRFTASRDNAKNTAYLQMNSLKPEDTAVYYCAADSKGWSEWGMDYWGKGTLVTVS
In the case of B2, in assay [2], the “SARS-CoV-1 PSV neutralisation IC50” value was 8.62 nM.

B3: S1-RBD-40 (VHH)
VHH: QVQLVESGGGLVQAGGSLRLSCAASGITFSNYGMVWWRQAPGKQREFVASISSGRDTNYADFVKGRFTISRDNAKNTVHLQMNSLKPEDTAVYYCYTVTDRSDYWGQGTQVTVS
B3: in assay [3], the Kd was 0.0371 nM, the koff is 2.77e-05 s⁻¹ and the kon was found to be 747000 M⁻¹ s⁻¹. The “PSV neutralisation IC50” value with SARS-CoV-2 spike protein [4] was determined as 25.6 nM.

B4: S1-RBD-16 (VHH)
VHH: QVQLVESGGGLVQSGGSLRLSCVASGRGFDRYPMGWFRQAPGKEREFVGGINWNGANTYYADSVKGRFTISRDNTKNTVYLQMNSLKPEDTALYYCAADQHYMGSPPPKEYEYDYWGQGTQVTVS
B4: in assay [5], the Kd is 3.73 nM, the koff was 6.25e-05 s⁻¹ and the kon came to 16800 M⁻¹ s⁻¹. Also, the “PSV neutralisation IC50” value with SARS-CoV-2 spike protein [6] amounted to 79.2 nM.

B5: S1-RBD-23 (VHH)
VHH: QVHLVESGGDLVQPGGSLRLSCVASGSGFENNAITWYRQAPGKERELVSGITSGGSTNYADSVKGRFTISRDNAKNTVYLEMNSLKPEDTAVYLCQAVAWDSRRRSVVAFWGQGTQVTVS
B5: in assay [5], the Kd is 0.0159 nM, the koff amounted to 4.61e-05 s⁻¹ and the kon turned out to be 2.89e+06 M⁻¹ s⁻¹. The “PSV neutralisation IC50” value in the assay with SARS-CoV-2 spike protein [6] worked out at 7.31 nM.

B6: S2-12 (VHH)
VHH: QVQLVESGGGLVQAGGSLRLSCVASEPTFSSRTMGWFRQAPGKERDFVAAMPWWKGALPNYKDSVKGRFTISIDSAKNTMYLQMNSLKPEDTAVYYCAASKTWSPRTEVATEHEFRGQGTQVTVS
notes: also called S2 Nanobody # 12
For the molecule B6, in assay [7], the binding result is “binds”.

B7: S1-RBD-13 (VHH)
VHH: EVQLVESGGGLVQAGGSLRLSCAAPTLTLSSHTIGWFRQAPGKEREGVSYIPMTGLPIYCRDSVKGRFTISTDNAKNTVYLQMDSLKPEDTAVYYCAALLGVRSRMCPESVYTYWGQGTQVTVS
notes: also called S1-RBD Nanobody # 13
As for B7, the binding result in assay [8] is listed as “binds”.

B8: S2-45 (VHH)
VHH: QVQLVESGGGLVQAGGSLRLSCAASGLTFSSRAMAWFRQAPGKEREFVARISWSGRNTYYGDSVKGRFTISRDNAKNTVYLQMSSLEPEDTAVYRCAADQQYYNRYYNDEQGYAFWGQGTQVTVS
notes: also called S2 Nanobody # 45
On to B8, for which the binding result in assay [7] is recorded as “binds”.

B9: S2-24 (VHH)
VHH: QVQLVESGGGLVQAGGSLRLSCAASGVTFSSHHMAWYRQTPGKQRELVATLASGGDTNYADSVKGRFTISRDNTKNTIYLQMNSLKPEDTAVYYCNARLWATGFRDYWGQGTQVTVS
notes: also called S2 Nanobody # 24
Take B9: in assay [7], the binding result is listed as “binds”.

B10: S1-13 (VHH)
VHH: EVQLVESGGGLVQPGGSLKLSCAASGFTLDDYTIGWFRQAPGKEREGVSYISSSGSNSYYEDSVKGRFTISRDNAKSTVYLQMNSLKPEDTAVYYCAARRVWQQTIVVRGPVHYEYWGHGTQVTVS
notes: also called S1 Nanobody # 13
Turning to B10, in assay [1], the binding result is given as “binds”.

B11: S1-3 (VHH)
VHH: QVQLVESGGGLVQAGGSLRLSCAASGSTFSNTGLGWYRQAPGKQREWVASISPSGSTSYLDSVRGRFIFSRDNAKNIAYLQMNSLKPEDTAVYYCNTLPRSGSWGQGTQVTVS
In the case of B11, the “SARS-CoV-1 PSV neutralisation IC50” value in assay [2] worked out at 4160 nM.

B12: S2-34 (VHH)
VHH: QVQLVESGGGLVQTGGSLRLSCAASGITFNTYGMGWYRQAPGKQRELVAGIPSIGNINYARFVQGRFTVSRDDGKKAVYLQMNSLKPEDTAIYYCNLQTRFGTNYWGQGTQVTVS
notes: also called S2 Nanobody # 34
As for B12, the binding result in assay [7] is given as “binds”.

B13: S1-RBD-29 (VHH)
VHH: QVQLVESGGGLVQDGGSLRLSCAASGLASIVFNMGWFRQAPGKEREFVAGILGSGQSTYYGNSVKGRFTISRDSAKNTVYLQMNSLKPEDTAVYYCAAGGRLDLVNTTGGYEPTYWGQGTQVTVS
Regarding B13, in assay [3], the Kd came out at 2.51 nM, the koff was 0.00135 s⁻¹ and the kon amounted to 536000 M⁻¹ s⁻¹. Moreover, in the assay with SARS-CoV-2 spike protein [4], the “PSV neutralisation IC50” value is 9.53 nM.

B14: S2-44 (VHH)
VHH: QVQFVESGGGLVQPGGSLRLSCVGSEFTLDNYDIGWFRQAPGKEREWVSCITPRGNIINYADSVKGRFTISRDNAKNTAFLQMNSLKPEDTAVYYCARSSALYDCSQRQTRFFSSWGQGTQVTVS
notes: also called S2 Nanobody # 44
Turning to B14, the binding result in assay [7] is listed as “binds”.

B15: S2-30 (VHH)
VHH: QVQLVESGGGLVQAGGSLRLSCAASGSTFGNYAMGWYRQPPQAPGNQRDLVAFISTTGSTNYADSVKGRFTISRDNAKNTMYLQMNSLKPEDTAVYYCQAIERIVGYVSWGQGTQVTVS
notes: also called S2 Nanobody # 30
As to B15, in assay [7], the binding result is on record as “binds”.

B16: S2-37 (VHH)
VHH: QVQVMESGGGLVQAGGSLRLSCAASTGILGGYDMRWYRQTPGNERELVASISSDGSTNYVDFVKGRFTISSDNAKNTVYLQMDSLKSEDTAVYYCNMRSTYYAIDYWGRGTQVTVS
notes: also called S2 Nanobody # 37
Turning to B16, the binding result in assay [7] is “binds”.

B17: S2-23 (VHH)
VHH: QVQLVESGGGLVQPGGSLRLSCAASGRTFSSAMMGWFRQAPGKEREFVASIDWRYQYRYYADSVKGRFTISRDNAKNMVYLQMNSLKPEDTAVYYCACQIERSGIYHYEDSNKYQSWGQGTQVSVS
notes: also called S2 Nanobody # 23
With B17, the binding result in assay [7] is reported as “binds”.

B18: S2-20 (VHH)
VHH: QVQLVESGGGLVQPGGSLRLSCAASGFTLTYYTISWFRQAPGKEREWVSSSRISGNTYYTDSVKGRFTISRDNAKSVVYLQMNSLKPEDTATYYCASGRNIPYDTYTNPTKYDYWGRGTQVTVS
notes: also called S2 Nanobody # 20
For B18, the binding result in assay [7] is on record as “binds”.

B19: S2-29 (VHH)
VHH: QVQLVESGGGLVQPGGSLRLSCAASGRIFSSNAMGWYRQAPGKEREWVACISSGSSTNYADSVKGRFTISRDNAKNTVYLQMNSLKPEDTAVYYCISKEVGWCGREGPIGSWGQGTQVTVS
notes: also called S2 Nanobody # 29
Consider B19, for which the binding result in assay [7] is recorded as “binds”.

B20: S2-49 (VHH)
VHH: DVQLVESGGGLVQPGGSLRLSCAVSGLTLPYFTISWFRQAPGKEREWVSSSRITGNTYYADSVKGRFTVSRDNAKSTVYLQMNRLKAEDTATYYCASGRNINYYTNSAEYNYWGRGTQVTVS
notes: also called S2 Nanobody # 49
As for B20, the binding result in assay [7] is “binds”.

B21: S1-18 (VHH)
VHH: QVRLVESGGGLVQPGGSLRLSCVVSGVSGSAFRFNRLGWYRQPPGKERELVASISSGGSTNYADSVKGRFTISRDNAKSTVSLQMNSLKPEDTAVYYCNIRADFFSSGRTGDWGQGTQVTVS
notes: also called S1 Nanobody # 18
As to B21, in assay [1], the binding result is “binds”.

Broadly, the Kd is the constant that tells how readily two partners part at equilibrium. Usually koff stands for the first-order rate constant of dissociation. By kon is commonly meant the second-order rate constant of association.
